The source of these data is patent US20190161555A1 (ALLIGATOR BIOSCIENCE, published 2019).

Test [1] addresses T1, cynomolgus 5T4 (Macaca mulatta (cynomolgus)).
T1 construct: whole, on cells; stably transfected CHO cells; also called cyno5T4; cy5T4
The test is described as follows: flow cytometry, CHO cells with cynomolgus 5T4 against CHO cells with human 5T4. How it is done: (§1) The potency of 5T4 antibodies in binding to cynomolgus 5T4 was determined by flow cytometry. CHO cells were stably transfected with […] (cynomolgus) 5T4. […] Samples were analysed either on a FACSCalibur or a FACSverse (BD Biosciences, Heidelberg, Germany) and mean fluorescence intensity (MFI) determined. […] To compare the EC50 values between human and cynomolgus 5T4, the cy5T4/hu5T4 ratio was calculated from the experiment with the full dose-response.

Test [2] addresses T2, human 5T4 on transfected cells (human, UniProt Q13641 32-420).
T2 construct: whole, on cells; for B16 and A9 cells only a 5T4 construct is named; also called 5T4-transfected B16 cells; B16-5T4
T2 sequence (looked up): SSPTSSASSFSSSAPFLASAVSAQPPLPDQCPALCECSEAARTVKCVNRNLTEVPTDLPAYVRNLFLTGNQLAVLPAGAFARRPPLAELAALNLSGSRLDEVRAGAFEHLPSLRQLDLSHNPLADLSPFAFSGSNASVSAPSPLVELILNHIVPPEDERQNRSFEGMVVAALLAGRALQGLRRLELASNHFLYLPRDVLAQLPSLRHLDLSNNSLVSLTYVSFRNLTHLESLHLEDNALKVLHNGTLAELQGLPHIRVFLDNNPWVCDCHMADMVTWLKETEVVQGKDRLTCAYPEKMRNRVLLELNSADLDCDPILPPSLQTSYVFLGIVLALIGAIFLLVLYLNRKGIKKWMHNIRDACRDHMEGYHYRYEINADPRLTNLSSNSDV
The test is described as follows: flow cytometry, 5T4-transfected B16 cells. How it is done:
(§2) Analysis of 5T4 mAb binding with flow cytometry was performed using 5T4-transfected cell lines and as negative control, mock transfected cells. Three different transfected cell lines used were used for this study; B16, A9 and CHO, transfected either with a 5T4 construct or with an empty vector control construct. Cells were stained with 5T4 antibodies diluted in FACS buffer (PBS, 0.5% BSA and 0.02% NaN₃). […] Samples were analysed either on a FACSCalibur or a FACSverse (BD Biosciences, Heidelberg, Germany) and mean fluorescence intensity (MFI) determined.
In general terms: Flow cytometry measures light scatter and fluorescence of single cells or particles in a stream.

A further test concerns the target T3, mouse 5T4 (mouse, UniProt Q9Z0L0 32-426).
T3 construct: whole, on cells; also called murine 5T4
T3 sequence (looked up): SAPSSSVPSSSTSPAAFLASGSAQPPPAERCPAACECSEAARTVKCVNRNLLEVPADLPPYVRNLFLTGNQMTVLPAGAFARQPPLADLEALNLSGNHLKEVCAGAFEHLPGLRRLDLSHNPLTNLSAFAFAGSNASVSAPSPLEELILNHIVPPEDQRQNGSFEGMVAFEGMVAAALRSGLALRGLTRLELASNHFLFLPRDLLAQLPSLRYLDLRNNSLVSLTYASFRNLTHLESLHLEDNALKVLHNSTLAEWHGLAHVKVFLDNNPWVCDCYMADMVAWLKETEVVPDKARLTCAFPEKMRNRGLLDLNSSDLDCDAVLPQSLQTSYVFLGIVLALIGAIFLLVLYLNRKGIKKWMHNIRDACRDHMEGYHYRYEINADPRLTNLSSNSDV
The test is described as follows: flow cytometry, mouse 5T4-transfected cells.

Test [3] has as its target T2, human 5T4 on transfected cells. Put plainly: flow cytometry, 5T4-transfected A9 cells. How it is done:
as §2

In test [4] the target is T4, 5T4 (immobilised for SPR) (UniProt Q13641 32-355, limits assumed, biotinylated on the MASS-1 platform).
T4 construct: also called biotinylated 5T4
T4 sequence (looked up): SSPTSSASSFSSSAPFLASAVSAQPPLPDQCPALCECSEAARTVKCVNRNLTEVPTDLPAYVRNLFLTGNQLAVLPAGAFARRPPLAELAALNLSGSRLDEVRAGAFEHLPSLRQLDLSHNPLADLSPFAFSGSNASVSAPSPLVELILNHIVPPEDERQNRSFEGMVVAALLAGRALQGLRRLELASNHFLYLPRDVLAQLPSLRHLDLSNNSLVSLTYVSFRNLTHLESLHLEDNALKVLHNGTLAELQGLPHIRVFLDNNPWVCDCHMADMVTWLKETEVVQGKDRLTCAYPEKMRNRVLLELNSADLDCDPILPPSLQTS
Put plainly: SPR MASS-1, biotinylated 5T4 on streptavidin chip, mAb injected, 1:1 Langmuir. The method, then:
Binding kinetics of the 5T4-specific mAbs have been studied using two different SPR-based platforms, the Biacore 3000 (GE Healthcare) and the MASS-1 platform (Sierra Sensors). Briefly, 5T4 was captured at the sensor chip surface either via direct amine coupling (Biacore platform) or using a streptavidin coated chip and biotinylated 5T4 (MASS-1 platform). The different 5T4-specific mAbs were then injected over the chip in increasing concentrations and the association and dissociation rates studied in real time. A 1:1 Langmuir model was used for curve fitting.

Test [5] addresses T1, cynomolgus 5T4. Put plainly: flow cytometry, CHO cells transfected with cynomolgus 5T4. The method, then: as §1
The target in the next test is T5, 5T4-Fc (human, UniProt Q13641 32-355, limits assumed).
T5 construct: obtained from Peter L. Stern, University of Manchester; also called h5T4-Fc; recombinant 5T4
T5 sequence (looked up): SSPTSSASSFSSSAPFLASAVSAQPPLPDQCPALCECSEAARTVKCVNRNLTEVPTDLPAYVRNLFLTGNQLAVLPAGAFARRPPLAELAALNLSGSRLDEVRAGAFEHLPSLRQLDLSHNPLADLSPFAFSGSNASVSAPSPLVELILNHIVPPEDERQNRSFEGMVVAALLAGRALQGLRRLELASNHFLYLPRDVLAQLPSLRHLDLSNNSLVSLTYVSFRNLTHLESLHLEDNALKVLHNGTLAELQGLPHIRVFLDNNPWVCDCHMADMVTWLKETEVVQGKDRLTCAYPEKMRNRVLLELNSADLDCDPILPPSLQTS
The test is described as follows: ELISA, plates coated with 5T4-Fc. How it is done: ELISA was performed using a standard protocol. Plates (#655074, Greiner Bio-One GmbH, Germany) were pre-coated with 0.5 μg/ml 5T4-Fc (obtained from Peter L. Stern, University of Manchester) overnight. 5T4 antibodies were diluted from 6 to 1.5×10⁻³ μg/ml in 1:4 dilutions and added in duplicates of 50 μl to each well. Binding was detected with rabbit anti-h kappa L-chain-HRP (P0129, Dako Denmark) and the ELISA was developed with SuperSignal ELISA PICO Chemiluminescent substrate (Thermo Scientific Pierce, Rockford, Ill. USA) for 2-10 minutes and read in an automated microplate based multi-detection reader (FLUOstar OPTIMA, Netherlands).
(ELISA stands for enzyme-linked immunosorbent assay.)

B1: 1210/1211 (antibody, IgG1, V domains shown)
VH: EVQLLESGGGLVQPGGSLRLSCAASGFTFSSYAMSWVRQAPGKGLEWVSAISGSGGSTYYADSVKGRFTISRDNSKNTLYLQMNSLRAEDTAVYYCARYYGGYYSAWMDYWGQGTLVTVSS
VL: DIQMTQSPSSLSASVGDRVTITCRASQSISSYLNWYQQKPGKAPKLLIYAASSLQSGVPSRFSGSGSGTDFTLTISSLQPEDFATYYCQQTYGYLHTFGQGTKLEIK
notes: 5T4 antibody
What is called EC50 is the concentration giving half of the maximal effect. Low values mean a more potent agent, high ones a less potent agent. What is called koff is the rate constant with which the complex falls apart. In general, kon refers to the second-order rate constant of association. Turning to B1, the “Ratio EC50cyno-5T4/h5T4” value with cynomolgus 5T4 [1] worked out at 0.9 ratio. Further, the EC50 in test [2] is 0.8 nM; in the test with cynomolgus 5T4 [5], 0.7 nM; with 5T4-Fc, 0.48 nM. For the same molecule, the entries for the “Normalized EC50 (to 1628)” value in test [2] and in test [3] were 1.6 ratio to 1628 and 1.8 ratio to 1628, respectively. Further, the binding result with mouse 5T4 is “no binding”. Also, the koff in test [4] came out at 0.00019 s⁻¹. This molecule also showed a kon in test [4] of 510000 M⁻¹ s⁻¹.

B2: 1206/1207 (antibody, V domains shown)
VH: EVQLLESGGGLVQPGGSLRLSCAASGFTFSGSSMSWVRQAPGKGLEWVSSIYYSGSGTYYADSVKGRFTISRDNSKNTLYLQMNSLRAEDTAVYYCARYGRNVHPYNLDYWGQGTLVTVSS
VL: DIQMTQSPSSLSASVGDRVTITCRASQSISSYLNWYQQKPGKAPKLLIYAASSLQSGVPSRFSGSGSGTDFTLTISSLQPEDFATYYCQQGYYYLPTFGQGTKLEIK
notes: 5T4 antibody
Take B2: in the test with cynomolgus 5T4 [1], the “Ratio EC50cyno-5T4/h5T4” value is 3 ratio. Moreover, the figures for the EC50 (in test [2]; in the test with cynomolgus 5T4 [5]; in the test with 5T4-Fc) were 1.8 nM, 1.53 nM and 0.64 nM, respectively. Also, the “Normalized EC50 (to 1628)” value in test [2] was 3.9 ratio to 1628; in test [3] it was 2.9 ratio to 1628. Moreover, the binding result with mouse 5T4 is reported as “no binding”. For the same molecule, the koff in test [4] is 0.00013 s⁻¹. The same molecule showed a kon in test [4] of 1.4e+06 M⁻¹ s⁻¹.
